Test [1] has as its target T1, active BoNT/G holotoxin (Clostridium botulinum, UniProt Q60393 2-1297).
T1 sequence: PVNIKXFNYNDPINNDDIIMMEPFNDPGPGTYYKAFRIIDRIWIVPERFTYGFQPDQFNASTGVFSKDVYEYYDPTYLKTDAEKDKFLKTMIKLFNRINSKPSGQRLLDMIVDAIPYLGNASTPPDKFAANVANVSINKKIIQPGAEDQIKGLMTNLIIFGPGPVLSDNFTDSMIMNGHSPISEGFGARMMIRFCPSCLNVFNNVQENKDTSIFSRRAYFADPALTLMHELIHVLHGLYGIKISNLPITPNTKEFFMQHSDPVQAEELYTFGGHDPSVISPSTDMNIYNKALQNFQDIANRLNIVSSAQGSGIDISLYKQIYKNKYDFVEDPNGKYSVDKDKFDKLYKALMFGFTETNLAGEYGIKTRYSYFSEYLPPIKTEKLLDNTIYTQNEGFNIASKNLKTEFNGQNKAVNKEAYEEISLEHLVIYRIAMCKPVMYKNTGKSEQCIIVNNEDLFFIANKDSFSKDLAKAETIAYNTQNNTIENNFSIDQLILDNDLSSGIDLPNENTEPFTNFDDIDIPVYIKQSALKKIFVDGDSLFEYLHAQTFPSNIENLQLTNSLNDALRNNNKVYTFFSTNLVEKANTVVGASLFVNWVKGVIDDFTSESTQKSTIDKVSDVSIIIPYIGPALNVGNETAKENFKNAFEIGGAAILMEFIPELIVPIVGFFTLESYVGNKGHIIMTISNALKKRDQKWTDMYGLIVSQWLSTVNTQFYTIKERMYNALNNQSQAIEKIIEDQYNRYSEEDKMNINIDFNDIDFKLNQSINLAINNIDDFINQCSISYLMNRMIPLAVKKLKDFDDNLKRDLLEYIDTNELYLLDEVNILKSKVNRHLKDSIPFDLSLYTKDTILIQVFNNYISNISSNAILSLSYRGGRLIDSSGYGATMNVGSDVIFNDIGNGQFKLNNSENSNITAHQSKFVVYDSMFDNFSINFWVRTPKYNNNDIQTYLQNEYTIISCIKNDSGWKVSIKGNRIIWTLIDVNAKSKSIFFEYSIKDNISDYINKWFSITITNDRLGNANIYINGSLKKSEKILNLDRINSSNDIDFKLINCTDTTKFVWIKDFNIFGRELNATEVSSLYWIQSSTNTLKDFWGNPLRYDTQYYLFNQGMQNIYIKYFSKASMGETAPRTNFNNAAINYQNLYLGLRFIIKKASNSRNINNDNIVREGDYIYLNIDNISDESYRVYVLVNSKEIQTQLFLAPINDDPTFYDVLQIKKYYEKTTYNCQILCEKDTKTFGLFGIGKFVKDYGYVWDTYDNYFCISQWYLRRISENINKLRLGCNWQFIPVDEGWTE
In words: KinExA, IgG.

In test [2] the target is T2, inactive BoNT/G (BoNT/Gi) (Clostridium botulinum, UniProt Q60393 1-1297).
T2 sequence: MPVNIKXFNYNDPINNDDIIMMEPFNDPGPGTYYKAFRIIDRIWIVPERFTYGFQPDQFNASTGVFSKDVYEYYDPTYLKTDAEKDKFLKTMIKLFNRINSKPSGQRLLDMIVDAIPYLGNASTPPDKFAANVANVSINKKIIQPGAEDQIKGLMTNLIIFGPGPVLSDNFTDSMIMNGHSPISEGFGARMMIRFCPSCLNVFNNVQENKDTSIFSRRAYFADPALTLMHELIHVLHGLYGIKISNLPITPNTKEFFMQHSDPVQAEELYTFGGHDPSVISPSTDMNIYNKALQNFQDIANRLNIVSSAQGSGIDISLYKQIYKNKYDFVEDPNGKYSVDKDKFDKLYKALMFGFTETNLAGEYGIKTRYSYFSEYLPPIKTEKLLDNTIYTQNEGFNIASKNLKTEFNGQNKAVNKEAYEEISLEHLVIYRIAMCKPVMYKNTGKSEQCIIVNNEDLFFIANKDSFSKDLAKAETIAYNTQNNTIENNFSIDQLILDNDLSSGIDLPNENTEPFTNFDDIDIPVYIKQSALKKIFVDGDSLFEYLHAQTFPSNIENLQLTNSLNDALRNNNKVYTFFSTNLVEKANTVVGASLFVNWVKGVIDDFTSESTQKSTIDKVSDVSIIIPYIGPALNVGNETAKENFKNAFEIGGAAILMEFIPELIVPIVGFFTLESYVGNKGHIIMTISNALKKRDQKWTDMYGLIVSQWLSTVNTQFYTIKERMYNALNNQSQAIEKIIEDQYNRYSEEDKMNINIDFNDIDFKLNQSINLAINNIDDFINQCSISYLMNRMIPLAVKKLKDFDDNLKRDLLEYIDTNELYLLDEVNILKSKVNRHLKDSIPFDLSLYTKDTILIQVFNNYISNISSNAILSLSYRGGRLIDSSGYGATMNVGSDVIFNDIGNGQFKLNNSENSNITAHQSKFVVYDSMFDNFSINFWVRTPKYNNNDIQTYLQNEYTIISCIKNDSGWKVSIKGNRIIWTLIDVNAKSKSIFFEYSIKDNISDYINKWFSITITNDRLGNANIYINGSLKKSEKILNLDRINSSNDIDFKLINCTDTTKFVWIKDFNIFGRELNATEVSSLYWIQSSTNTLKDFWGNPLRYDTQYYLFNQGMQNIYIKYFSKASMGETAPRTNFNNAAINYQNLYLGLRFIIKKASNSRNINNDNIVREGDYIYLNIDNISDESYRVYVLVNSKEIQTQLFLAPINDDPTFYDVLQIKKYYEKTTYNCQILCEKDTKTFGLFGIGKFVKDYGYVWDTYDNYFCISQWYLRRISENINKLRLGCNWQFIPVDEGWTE
In words: FACS, scFv on yeast.

Usually Kd stands for a measure of binding affinity in units of concentration. The low end stands for higher affinity, the high end for lower affinity.

B1: Hu6G7.1 IgG (antibody, V domains shown)
VH: QVQLVQSGAEVKKPGASVKVSCKASDYSFTDYNIYWVRQTPGQGLEWIGYIDPYNGGTSYNQKFKGRATLTVDKSISTAYMELSRLRSDDTAVYYCALYGYDPDYIDYWGQGTTLTVSS
VL: DIVLTQSPASMAVSPGQRVTITCSASSSVSYLHWFQQKPGQSPKLWIYSTSNLASGVPARFSGSGSGTDYTLTINPMEAEDTATYYCQQRSSYPYTFGQGTKLEIKR
B1 yielded a dissociation constant (Kd) in test [1] of 1.19 nM.

B2: 6G7.1 IgG (antibody, V domains shown)
VH: DVQLQESGPELVKPGASVKVSCKASDYSFTDYNIYWVKQSHGKSLEWIGYIDPYNGGTSYNQKFKGKATLTVDKSSSTAFMYLNSLTSEDSAVYYCALYGYDPDYIDYWGQGTTLTVSS
VL: QIVLTQSPAIMSASPGEKVTITCSASSSVSYLHWFQQKPGTSPKLWIYSTSNLASGVPARFSGSGSGTSYSLTISRMEAEDAATYYCQQRSSYPYTFGGGTKLEIKA
In turn, B2 displayed a dissociation constant (Kd) in test [1] of 0.0266 nM.

B3: 6G9 IgG (antibody, V domains shown)
VH: EVQLQQSGDDLVKPGASVKMSCKASGYTFTSYWMHWVKQRPGQGLEWIGYINPSTGYTEYNQKFKDKATLTADKSSSTAYMQLSSLTSEDSAVYYCARGGNYVDYWGQGTTLTVSS
VL: EIVLTQSPAIMSASPGEKVTISCSASSSVSYMYWYQQKPGSSPKPWIYRTSNLASGVPARFSGSGSGTSYSLTISSMEAEDAATYYCQQWSSNPYTFGGGTKLEIKR
In test [1], B3 came in with a Kd of 1.59 nM.

B4: Hu6G11.1 IgG (antibody, V domains shown)
VH: QVQLVQSGAEVAKPGASVKMSCKASGYTFTSYWMHWVRQAPGQGLEWIGYINPSTGYTEYNQKFKDRATLTADKSKSTAYMELSSLRSEDTAVYYCARGYFSFAYWGQGTLVTVSS
VL: DIVMTQSPSSLSASVRDRVTITCQASHDIKNFLNWFQQKPGKAPKLLVYDASYLQVGVPSRFSASGYGTEFTLTISSLQPEDFATYYCQQANSFPRTFGQGTKVEIKR
In test [1], B4 registered a dissociation constant (Kd) of 0.101 nM.

B5: Hu6G11.1 scFv (scFv, V domains shown)
VH: QVQLVQSGAEVAKPGASVKMSCKASGYTFTSYWMHWVRQAPGQGLEWIGYINPSTGYTEYNQKFKDRATLTADKSKSTAYMELSSLRSEDTAVYYCARGYFSFAYWGQGTLVTVSS
VL: DIVMTQSPSSLSASVRDRVTITCQASHDIKNFLNWFQQKPGKAPKLLVYDASYLQVGVPSRFSASGYGTEFTLTISSLQPEDFATYYCQQANSFPRTFGQGTKVEIKR
For B5, binding in test [2] was characterised by a dissociation constant (Kd) of 0.32 nM.

B6: Hu6G11.2 scFv (scFv, V domains shown)
VH: QVQLVQSGAEVAKPGASVKMSCKASGYTFTSYWMHWVRQAPGQGLEWIGYINPSTGYTEYNQKFKDRATLTADKSKSTAYMELSSLRSEDTAVYYCARGYFSFAYWGQGTLVTVSS
VL: DIVMTQSPSSLSASVRDRVTITCQASHDIKNFLNWFQQKPGKAPKLLVYDASHLQVGVPSRFSASGYGTEFTLTISSLQPEDFATYYCQQANSFPRTFGQGTKVEIKR
Take B6: binding in test [2] was put at a Kd of 0.56 nM.

B7: Hu6G11.2 IgG (antibody, V domains shown)
VH: QVQLVQSGAEVAKPGASVKMSCKASGYTFTSYWMHWVRQAPGQGLEWIGYINPSTGYTEYNQKFKDRATLTADKSKSTAYMELSSLRSEDTAVYYCARGYFSFAYWGQGTLVTVSS
VL: DIVMTQSPSSLSASVRDRVTITCQASHDIKNFLNWFQQKPGKAPKLLVYDASHLQVGVPSRFSASGYGTEFTLTISSLQPEDFATYYCQQANSFPRTFGQGTKVEIKR
B7 gave a dissociation constant (Kd) in test [1] of 0.048 nM.

B8: hu6G11 IgG (antibody, V domains shown)
VH: QVQLVQSGAEVAKPGASVKMSCKASGYTFTSYWMHWVRQAPGQGLEWIGYINPSTGYTEYNQKFKDRATLTADKSTSTAYMELSSLRSEDTAVYYCARGYFSFAYWGQGTLVTVSS
VL: DIVMTQSPSSLSASVRDRVTITCQASHDIKNFLNWFQQKPGKAPKLLVYDASNLQVGVPSRFSASGYGTEFTLTISSLQPEDFATYYCQQANSFPRTFGQGTKVEIKR
In test [1], B8 came in with a Kd of 0.531 nM.

B9: Hu6G9.1 IgG (antibody, V domains shown)
VH: QVQLVQSGAEVKKPGASVKMSCKASGYTFTSYWMHWVRQAPGQGLEWVGYINPSTGYTEYNQKFKDRATLTADKSTSTAYMELRSLRSDDTAVYYCARGGNYVDYWGQGTTLTVSS
VL: DIQMTQSPSTLSASVGERVTITCRASHGISSWLAWYQQKPGKAPKRLIYAVSTLQTGVPSRFSDSGSGTDLTLTINSLQPEDFATYYCQDLNSYPLSFGGGTKVEIKR
In test [1], B9 displayed a Kd of 0.0275 nM.

B10: 6G10 IgG (antibody, V domains shown)
VH: EVQLQQSGPELVKPGASVKISCKASGYSFTGYFMHWVKQSHVKSLEWIGRINPYNGDIIYNQNFKDKASLTVDKSSSTAYMELHSLTSEDSAVYYCASLFGLYYFDYWGQGTTLTVSS
VL: EIVLTQSPAIMSASPGEKVTMTCSASSSVSYMHWYQQKSGTSPKRWIYDTSKLASGVPARFSGSGSGTSYSLTISSMEAEDAATYYCQQWSSNPLTFGAGTKLELKR
Take B10: binding in test [1] was characterised by a dissociation constant (Kd) of 0.33 nM.

B11: Hu6G10 scFv (scFv, V domains shown)
VH: QVQLVQSGAEVKKPGATVKISCKASGYSFTGYFMHWVRQAPGKGLEWIGRINPYNGDIIYNQNFKDRATLTVDKSTSTAYMELSSLRSEDTAVYYCASLFGLYYFDYWGQGTTLTVSS
VL: DVVMTQSPSSVSASVGDRVTITCRASQRISNHLNWYQQKPGKAPKRLIYAASSLESGVPSRFSGSGSGTEFTLTISSLQPEDFATYFCLQHNSYPYTFGQGTKVEIKR
Turning to B11, the dissociation constant (Kd) in test [2] is 0.52 nM.

B12: hu6G6 IgG (antibody, V domains shown)
VH: QVQLVQSGAEVKKPGASVKLSCKASGFNIKDTYMHWVRQAPGQGLEWIGRIDPANGNTKYDPKFQGRATITADTSINTAYLELSRLRSDDTAVYYCASGPNYYGTTWFAYWGQGTTVTVSS
VL: EIVLTQSPSTLSASVGDRVTITCRASHGISNYLAWYQQKPGRAPKLLIYKASTLHIGVPSRFSGSGSGTEFALTISSLQPDDFSTYYCQQYNSYLPHTFGQGTRLEIKR
On to B12, for which the Kd in test [1] worked out at 8.37 nM.

B13: Hu6G6.2 IgG (antibody, V domains shown)
VH: QVQLVQSGAEVKKPGASVKLSCKASGFNIKDTYMHWVRQAPGQGLEWIGRIDPENGNTKYDPKFQGRATITAYKSINRAYLELSRLRSDDTAVYYCASGPNYYGTTWFAYWGQGTTVTVSS
VL: EIVLTQSPSTLSASVGDRVTITCRASHGISNYLAWYQQKPGRAPKLLIYKASTLHIGVPSRFSGSGSGTEFALTISSLQPDDFSTYYCQQYNSYLPHTFGQGTRLEIKR
Regarding B13, in test [1], the Kd turned out to be 0.0422 nM.

Source of the values: US20260116958A1 (University of California, published 2026).
